In patent US7173007:

Test system: recombinant human cathelin-like protein (cathelin-like domain of hCAP18, residues 31-131), after removal of the N-terminal tag with enterokinase
Sequence (chain, as listed by the source): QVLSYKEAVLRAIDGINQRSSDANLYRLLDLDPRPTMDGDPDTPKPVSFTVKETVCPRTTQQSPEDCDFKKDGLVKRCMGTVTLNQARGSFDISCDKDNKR

Chain of human liver cathepsin L (Calbiochem) (chain, as listed by the source): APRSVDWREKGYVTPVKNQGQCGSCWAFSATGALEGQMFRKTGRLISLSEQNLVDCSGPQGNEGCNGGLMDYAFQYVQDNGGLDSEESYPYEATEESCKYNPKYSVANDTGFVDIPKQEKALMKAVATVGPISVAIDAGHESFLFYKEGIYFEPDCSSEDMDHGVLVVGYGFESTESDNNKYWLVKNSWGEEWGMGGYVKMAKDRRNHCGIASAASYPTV

Substance: human liver cathepsin L (Calbiochem)
- hydrolysis of Z-Phe-Arg-AMC by cathepsin L alone and with cathelin-like protein: Data demonstrate inhibition of cathepsin L by the addition of cathelin-like recombinant protein
- slope of fluorescence generation (Z-Phe-Arg-AMC hydrolysis) with cathelin-like protein; cathepsin L alone gave 1.31: slope=1.31 vs 0.71, respectively
